B1: Arabidopsis thaliana cryptochrome 2 (CRY2, UniProt Q96524), residues 1-535 fused after the Gal4 DNA-binding domain (Gal4BD-CRY2(535)); mutagenized window 321-412, Q96524 (parent)
chain: MKMDKKTIVWFRRDLRIEDNPALAAAAHEGSVFPVFIWCPEEEGQFYPGRASRWWMKQSLAHLSQSLKALGSDLTLIKTHNTISAILDCIRVTGATKVVFNHLYDPVSLVRDHTVKEKLVERGISVQSYNGDLLYEPWEIYCEKGKPFTSFNSYWKKCLDMSIESVMLPPPWRLMPITAAAEAIWACSIEELGLENEAEKPSNALLTRAWSPGWSNADKLLNEFIEKQLIDYAKNSKKVVGNSTSLLSPYLHFGEISVRHVFQCARMKQIIWARDKNSEGEESADLFLRGIGLREYSRYICFNFPFTHEQSLLSHLRFFPWDADVDKFKAWRQGRTGYPLVDAGMRELWATGWMHNRIRVIVSSFAVKFLLLPWKWGMKYFWDTLLDADLECDILGWQYISGSIPDGHELDRLDNPALQGAKYDPEGEYIRQWLPELARLPTEWIHHPWDAPLTVLKASGVELGTNYAKPIVDIDTARELLAKAISRTREAQIMIGAAPDEIVADSFEALGANTIKEPGLCPSVSSNDQQVPSAV

Variants of: B1
Assay: yeast two-hybrid growth selection (MaV203; Gal4BD-CRY2(1-535) library x Gal4AD-CIB1; URA3 reporter on SC -Trp/-Leu/-Ura) in the dark, deep sequencing before and after selection, Enrich2 scoring; three independent screens (one at 48 h, two …)
Settings: with CIB1 (CRYPTOCHROME-INTERACTING BASIC-HELIX-LOOP-HELIX 1), dark (no blue light), screens 1, 3 and 4, Svar > 0 = enriched under dark selection for CRY2-CIB1 two-hybrid growth (URA3 reporter), < 0 = depleted, relative to wild type (whose scores are 0). 'The Enrich2 software calculates, parent: 0, not an affinity, scale: Enrich2 score, numbering: uniprot, sequence starts at 1

Variant	enrichment
E409V	0.507
E409A	-0.172
E409D	0.454
E409T	0.84
E409K	-0.366
E409G	0.152
Y399D	1.99
Y399N	2.41
Y399H	1.23
Y399S	2.82
Y399F	1.58
Y399I	2.5
Y399C	1.43
W382C	-0.025
W382R	-1.18
W382L	-0.17
W382G	0.784
L390F	1.66
L390S	-1.09
L390V	0.548
L390W	2.28
L390M	-0.808
C392W	-0.824

Variant	enrichment
C392Y	-1.08
C392G	-0.321
C392F	-0.128
C392R	-1.14
C392S	-0.465
L395Q	2.71
L395P	-0.953
L395F	2.13
L395R	-0.209
L395H	-0.769
G377R	-1.08
G377V	-0.508
G377E	-0.85
D393Y	-0.612
D393E	1.18
D393V	0.508
D393G	2.3
D393A	1.64
D393S	2.65
D393N	1.16
D389V	-0.759
D389E	-0.54
D389G	-1.23

Variant	enrichment
D389N	-0.535
D389A	-0.573
D389Y	-0.572
I404F	2.25
I404A	1.16
I404S	1.61
I404V	-0.182
I404N	1.51
I404T	-0.507
I404Y	1.4
G396A	-1.05
G396S	-1.1
G396V	0.898
G396D	0.65
G396R	2.19
S401L	2.46
S401Y	0.744
S401P	-0.107
S401T	2.02
S401A	-0.239
S401F	2.4
T384S	0.274
T384K	-0.721

Variant	enrichment
T384P	-1.14
T384A	0.177
T384I	-0.949
D411E	1.55
W376R	-1.3
W376G	-0.7
W376S	-1.68
W376L	0.0656
W376C	-0.498
K379N	-0.188
K379T	0.481
K379L	0.965
K379M	-1.02
K379A	1.5
K379E	-0.743
K379Q	-0.304
K379R	0.0968
G402V	-0.0472
G402W	-0.485
G402E	0.772
G402R	1.69
G402K	2.35
Y380N	-1.37

Variant	enrichment
Y380C	-0.0376
Y380F	1.2
Y380H	-0.297
Y380D	-0.763
Y380S	-0.827
I400M	0.868
I400T	-0.933
I400F	1.95
I400S	-0.343
I400V	-0.353
I400Y	1.86
I400N	-0.48
I400L	-0.846
M378R	2.81
M378K	2.66
M378T	2.32
M378V	0.308
M378A	0.99
M378I	-0.703
M378L	-0.703
H408L	1.61
H408Y	-0.432
H408R	2.75

Variant	enrichment
H408P	1.5
F381V	-0.0604
F381T	1.8
F381I	-0.4
F381S	-1.2
F381Y	0.399
F381C	0.0158
F381L	1.1
Q398R	2.52
Q398L	1.96
Q398K	2.11
Q398P	-0.641
Q398E	1.41
Q398H	1.96
Q398W	1.99
D383V	-0.206
D383E	-0.349
D383G	-0.813
D383A	-0.952
D383Y	-0.379
D383N	-0.384
W397C	-0.144
W397L	-0.429

Variant	enrichment
W397G	-0.823
W397R	-1.01
W397S	-1.08
S403R	2.21
S403I	2.54
S403C	0.314
S403N	0.435
S403G	-0.408
G407N	2.77
G407C	1.11
G407S	-0.771
G407R	-0.0452
G407V	1.39
G407A	-0.714
G407D	1.47
L410R	1.71
E391G	-1.1
E391V	-0.645
E391D	-0.531
E391K	-0.425
E391A	-0.592
E391Q	-0.786
I394Y	1.45

Variant	enrichment
I394S	0.694
I394M	1.08
I394F	2.63
I394L	2.29
I394V	0.326
I394A	1.15
I394T	0.588
I394N	2.39
D406H	-0.803
D406E	-0.152
D406A	-0.00151
D406G	-0.172
D406V	2.12
D406N	-0.7
D406Y	-0.496
L386W	-0.68
L386S	-0.716
L386M	0.0161
L386F	-0.324
L386V	0.483
D387Y	-0.867
D387H	-0.974
D387E	-1.15

Variant	enrichment
D387A	-0.921
D387N	-0.788
D387G	-1.18
D387V	-0.792
L385P	-1.22
L385F	2.61
L385I	2.28
L385R	-0.336
L385V	2.7
L385H	2.39
A388D	-0.472
A388S	0.429
A388G	-1.33
A388T	-0.454
A388P	-0.944
A388V	-0.153
K375V	1.44
K375T	-0.845
P405A	0.742
P405L	2
P405H	1.08
P405T	0.224
P405R	1.02
